Measured values published in patent US5766896A, “Method of producing iodine by use of a copper containing oxidase enzyme” (Novo Nordisk Biotech Inc., priority 1994, dated 1998).

Legend:
[1] = substrate: CCn1c(=NN=c2sc3cc(S(=O)(=O)O)ccc3n2CC)sc2cc(S(=O)(=O)O)ccc21; test: purified protein, by the assay type
[2] = substrate: COc1cc(C=NN=Cc2cc(OC)c(O)c(OC)c2)cc(OC)c1O; test: r-MtL syringaldazine oxidation; type: biochemical, Myceliophthora thermophila; details: other: optimal pH (7); 30.0 °C
Description: The extinction coefficient of 36 mM^-1 cm^-1 is used to calculate the rate. Spectroscopic assays are conducted on either a spectrophotometer (Shimadzu UV160) or a microplate reader (Molecular Devices).

[3] = other: from dependence of I^- oxidation rates on ABTS concentration, 20.0 °C
[4] = other: optimal pH of 4.1, pH 4.1, 30.0 °C

B1: ceruloplasmin (porcine plasma) (Sus scrofa) (protein)
chain: KDKHYYIGIVETTWDYASDRGEKKLISVDKEQSNIYLQNGPNRIGRLYKKAIYLQYTDETFRTIIEKPVWLGFLGPIIKAETGDRVYVHFKNFASRPYTFHAHGMTYYKEHEGAIYPDNTTDFQKADDKVHPGEQYTYILHANPEQGPGKEDSNCVTRIYHSHIDAPKDIASGLIGPLIHCRKDSLDKEKEKNIDQEFVVMFSVVDENLSWYLEDNIKTYCSEPEKVEPDNEDFKESNRMYSVNGYSFGSLPGLSMCAEDRVKWYLFGMGNEIDVHAAFFHGQVLTNKNYRIDTINLFPATLFDAFMVAQNPGEWMLSCQNLNHLKAGLQAFFRVQDCKKTSSEDAIHGKHVRHYYIAAEEIIWNYAPSGIDTFTKENLTAPGSASEVFFTRGSTRIGGSYKKLVYREYKDASFTNRKERGPEEEHLGILGPVIWAEVGDTIRVTFRNKGAYPLSIEPTGVRVSKSQEGTYYASHYISSSENVPPSASHVAPKETFTYEWTVPKEVGPTYKDPVCLTKMYYSAVDPTKDIFTGLIGPMKICKKGSLLANGRLKDVDKEFYLFPTVFDENESLLLDDNIQMFTTEPNKVDKENEDFQESNKMHSMNGFMYGNQPGLNMCQGDSVVWYLFSAGNEVDVHGIYFSGNTYLSRGERRDTANLFPQTSLRLFMQPDTAGTFDVECLTTDHYTGGMKQKYTVNQCKQLNENSYLYLGERTYYIAAVEVEWDYSPSREWEKELHHSQERNVSNAFLDKGEFYIGSKYKKVVYRQFTDSTFQVPVQRKAKEEHLGILGPQLHADVGDKVNIVFKNTATRPYSIHAHGVKTESPTVIPTVPGETRTYVWKIPERSGAGIDDSPCIPWVYYSTVDQVKDLYSGLIGPLIVCRKPYLKVFNPIKNLEFSLLFLVFDENESWYLDDNIKTYSDHPEKVDKANDEFIESNKMHAINGRMFGNLQGLTMHVGDEVNWYLMGMGNEIDLHTVHFHGHSFQYQHRGIYTSDVFDIFPGTYQTLEMFPKTSGTWLLHCHVTDHIHAGMETTYTVLPNEETKSG
For B1, the Km ([1]; other: pH 4.1, pH 4.1, 30.0 °C) was 110 ± 40 µM and the kcat ([1]; other: pH 4.1, pH 4.1, 30.0 °C) was 9.3±1.3 turnover per minute.

B2: recombinant Myceliophthora thermophila laccase (r-MtL) (Thermothelomyces thermophilus ATCC 42464) (protein)
chain: QQSCNTPSNRACWTDGYDINTDYEVDSPDTGVVRPYTLTLTEVDNWTGPDGVVKEKVMLVNRPTIFADWGDTIQVTVINNLETNGTSIHWHGLHQKGTNLHDGANGITECPIPPKGGRKVYRFKAQQYGTSWYHSHFSAQYGNGVVGAIQINGPASLPYDTDLGVFPISDYYYSSADELVELTKNSGAPFSDNVLFNGTAKHPETGEGEYANVTLTPGRRHRLRLINTSVENHFQVSLVNHTMTIIAADMVPVNAMTVDSLFLGVGQRYDVVIEASRTPGNYWFNVTFGGGLLCGGSRNPYPAAIFHYAGAPGGPPTDEGKAPVDHNCLDLPNLKPVVARDVPLSGFAKRPDNTLDVTLDTTGTPLFVWKVNGSAINIDWGRPVVDYVLTQNTSFPPGYNIVEVNGADQWSYWLIENDPGAPFTLPHPMHLHGHDFYVLGRSPDESPASNERHVFDPARDAGLLSGANPVRRDVTMLPAFGWVVLAFRADNPGAWLFHCHIAWHVSGGLGVVYLERADDLRGAVSDADADDLDRLCADWRHYWPTNPYPKSDSGL
B2 was tested, and the Km [1, 3] was 6.4 ± 0.8 µM, the kcat [1, 3] was 860±40 turnover per minute and the Km ([1]; other: pH 4.1, pH 4.1) was 5.6 ± 0.5 µM. It also gave a kcat ([1]; other: pH 4.1, pH 4.1) of 1460±31 turnover per minute, a Km [2] of 10 µM and a kcat [2] of 400 turnover per minute.

B3: bilirubin oxidase (Myrothecium verrucaria) (Albifimbria verrucaria) (protein)
chain: VAQISPQYPMFTVPLPIPPVKQPRLTVTNPVNGQEIWYYEVEIKPFTHQVYPDLGSADLVGYDGMSPGPTFQVPRGVETVVRFINNAEAPNSVHLHGSFSRAAFDGWAEDITEPGSFKDYYYPNRQSARTLWYHDHAMHITAENAYRGQAGLYMLTDPAEDALNLPSGYGEFDIPMILTSKQYTANGNLVTTNGELNSFWGDVIHVNGQPWPFKNVEPRKYRFRFLDAAVSRSFGLYFADTDAIDTRLPFKVIASDSGLLEHPADTSLLYISMAERYEVVFDFSDYAGKTIELRNLGGSIGGIGTDTDYDNTDKVMRFVVADDTTQPDTSVVPANLRDVPFPSPTTNTPRQFRFGRTGPTWTINGVAFADVQNRLLANVPVGTVERWELINAGNGWTHPIHIHLVDFKVISRTSGNNARTVMPYESGLKDVVWLGRRETVVVEAHYAPFPGVYMFHCHNLIHEDHDMMAAFNATVLPDYGYNATVFVDPMEELWQARPYELGEFQAQSGQFSVQAVTERIQTMAEYRPYAAADE
B3 gave a Km [1, 4] of 120 ± 10 µM and a kcat [1, 4] of 1310±40 turnover per minute.
